Laboratory results published in PMC11838001.

Biological target: E-cadherin (human (endogenous in NHEK))
Experiment: FRET or BRET; FLIM-FRET in fixed, permeabilized NHEK cells, untreated or treated with 6 μM CHIR99021 for 48 hours; β-catenin labelled by antibodies as donor (Alexa Fluor 488), E-cadherin as acceptor (Alexa Fluor 555); FRET efficiency from regions at cell-cell junctions, dual exponential fit

Sequence of β-catenin (P35222 whole entry): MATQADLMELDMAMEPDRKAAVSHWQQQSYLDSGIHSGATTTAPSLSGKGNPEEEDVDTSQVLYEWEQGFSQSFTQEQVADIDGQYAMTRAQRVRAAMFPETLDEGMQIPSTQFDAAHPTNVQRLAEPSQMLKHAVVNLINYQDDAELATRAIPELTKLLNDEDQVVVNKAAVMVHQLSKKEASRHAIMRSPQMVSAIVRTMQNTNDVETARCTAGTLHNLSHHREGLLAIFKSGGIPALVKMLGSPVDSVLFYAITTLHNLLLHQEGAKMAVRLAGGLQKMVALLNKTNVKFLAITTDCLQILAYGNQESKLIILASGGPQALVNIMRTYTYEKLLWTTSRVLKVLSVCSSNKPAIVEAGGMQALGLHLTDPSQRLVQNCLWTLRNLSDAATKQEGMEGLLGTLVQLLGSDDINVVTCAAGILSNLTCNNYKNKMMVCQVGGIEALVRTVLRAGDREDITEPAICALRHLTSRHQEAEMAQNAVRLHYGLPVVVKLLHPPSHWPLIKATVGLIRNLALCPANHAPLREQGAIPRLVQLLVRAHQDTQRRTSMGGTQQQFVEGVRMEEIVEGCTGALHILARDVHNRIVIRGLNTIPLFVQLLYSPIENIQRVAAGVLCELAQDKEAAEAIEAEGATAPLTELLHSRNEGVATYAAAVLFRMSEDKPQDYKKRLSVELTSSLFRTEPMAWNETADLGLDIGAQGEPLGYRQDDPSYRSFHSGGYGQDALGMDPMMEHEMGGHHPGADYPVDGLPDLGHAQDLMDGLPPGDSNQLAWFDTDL
Sequence of E-cadherin (human (endogenous in NHEK)) (P12830 23-882): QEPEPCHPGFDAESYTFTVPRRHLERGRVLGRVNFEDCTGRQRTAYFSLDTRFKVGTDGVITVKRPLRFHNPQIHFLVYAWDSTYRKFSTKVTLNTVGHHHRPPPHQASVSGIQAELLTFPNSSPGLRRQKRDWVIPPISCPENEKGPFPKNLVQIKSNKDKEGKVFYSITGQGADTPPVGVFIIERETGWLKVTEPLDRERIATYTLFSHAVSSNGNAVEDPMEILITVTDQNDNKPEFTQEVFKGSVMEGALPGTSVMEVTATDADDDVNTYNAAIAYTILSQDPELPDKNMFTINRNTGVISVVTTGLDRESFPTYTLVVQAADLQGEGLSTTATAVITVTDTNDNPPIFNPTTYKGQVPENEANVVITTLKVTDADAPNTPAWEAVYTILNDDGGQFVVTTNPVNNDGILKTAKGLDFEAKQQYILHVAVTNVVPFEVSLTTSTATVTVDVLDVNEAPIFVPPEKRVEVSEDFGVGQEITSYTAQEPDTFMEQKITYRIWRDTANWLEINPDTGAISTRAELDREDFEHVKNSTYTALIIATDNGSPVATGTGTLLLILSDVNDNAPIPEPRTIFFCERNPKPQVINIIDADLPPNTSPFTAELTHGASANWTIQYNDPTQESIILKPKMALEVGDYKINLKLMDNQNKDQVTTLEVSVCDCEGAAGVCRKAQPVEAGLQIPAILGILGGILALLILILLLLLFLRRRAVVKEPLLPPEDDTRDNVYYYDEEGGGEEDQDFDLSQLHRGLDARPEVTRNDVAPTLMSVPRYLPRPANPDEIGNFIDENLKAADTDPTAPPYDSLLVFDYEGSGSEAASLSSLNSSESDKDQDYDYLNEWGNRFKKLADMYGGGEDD

fold change of FRET efficiency, CHIR-treated against untreated cells: 3 fold
Substance: β-catenin (from UniProt P35222 1-781) (natural protein)
